Test results reported in publication PMC4893818, “Folliculin directs the formation of a Rab34–RILP complex to control the nutrient‐dependent dynamic distribution of lysosomes” (EMBO Reports, 2016).

How the values were obtained:
GST-RILP (full ORF) [1] = biological target: T1, GST-RILP (full ORF) (human, UniProt Q96NA2 1-401); test: pull-down; purified proteins: 0.2 nmol GST-RILP on glutathione beads; Rab34 proteins at 200 nM together with FLCN-DENN (1 uM; titrated 0 to 10 uM; 0.5 uM for wild-type Rab34); HEPES pH 7.5, 250 mM NaCl, 2 mM MgCl2, 1 mM GDP or GTPγS; 14 h at 4 °C; anti-His Western blot; settings: both partners purified
T1 construct: also called GST-RILP resin; source: E. coli BL21(DE3), purified (glutathione beads, eluted with glutathione, dialysed); not shown: GST, N-terminal, kept
T1 sequence (looked up): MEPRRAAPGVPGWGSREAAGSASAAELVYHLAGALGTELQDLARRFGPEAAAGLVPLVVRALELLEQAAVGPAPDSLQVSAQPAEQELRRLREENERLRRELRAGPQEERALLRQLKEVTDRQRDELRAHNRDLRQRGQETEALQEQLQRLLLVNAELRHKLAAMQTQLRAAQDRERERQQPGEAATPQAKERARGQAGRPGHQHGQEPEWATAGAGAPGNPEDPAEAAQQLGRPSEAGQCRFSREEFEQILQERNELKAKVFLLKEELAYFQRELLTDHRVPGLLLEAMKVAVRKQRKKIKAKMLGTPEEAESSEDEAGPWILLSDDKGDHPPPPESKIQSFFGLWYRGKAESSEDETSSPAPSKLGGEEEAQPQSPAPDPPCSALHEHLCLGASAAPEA

GST-RILP (full ORF) [2] = biological target: T1, GST-RILP (full ORF); test: pull-down; GST-RILP or GST on beads, His-FLCN-DENN in E. coli extract; Western blot; settings: one partner purified
GST-RILP (full ORF) [3] = biological target: T1, GST-RILP (full ORF); test: pull-down; 0.1 nmol GST-RILP prebound to glutathione beads, lysate of HeLa cells in normal growth or starved 4 h; 25 mM HEPES pH 7.5, 150 mM NaCl, 2 mM MgCl2, 0.2% NP-40, 0.2% Triton X-100; Western blot; settings: one partner purified

B1: His-tagged Rab34 WT (natural protein, mouse, UniProt Q64008 1-259, looked up)
chain: MNILAPVRRDRVLAELPQCLKKEAALHVRKDFHPRVTCACQEHRTGTVGFKISKVIVVGDLSVGKTCLINRFCKDTFDKNYKATIGVDFEMERFEVLGVPFSLQLWDTAGQERFKCIASTYYRGAQAIIIVFNLNDVASLEHTKQWLTDALKENDPSNVLLFLVGSKKDLSTPAQYSLMEKDALKVAQEIKAEYWAVSSLTGENVREFFFRVAALTFEANVLADVEKSGARHIADVVRINSDDKNLYLTASKKKATCCP
notes: Rab34, mouse, from an I.M.A.G.E. clone, in pET28 His-thrombin; loaded with GTPγS or GDP before the pull-down; also called wild-type Rab34; purified Rab34; source: E. coli, purified (His-trap FF, imidazole gradient)
GST-RILP (full ORF) [1]
  binding result: binds

B2: His-tagged Rab34 Q111L (natural protein, mouse, UniProt Q64008 1-259, looked up)
chain: MNILAPVRRDRVLAELPQCLKKEAALHVRKDFHPRVTCACQEHRTGTVGFKISKVIVVGDLSVGKTCLINRFCKDTFDKNYKATIGVDFEMERFEVLGVPFSLQLWDTAGLERFKCIASTYYRGAQAIIIVFNLNDVASLEHTKQWLTDALKENDPSNVLLFLVGSKKDLSTPAQYSLMEKDALKVAQEIKAEYWAVSSLTGENVREFFFRVAALTFEANVLADVEKSGARHIADVVRINSDDKNLYLTASKKKATCCP
notes: Rab34, mouse, from an I.M.A.G.E. clone, in pET28 His-thrombin; assayed in the presence of 1 mM GTPγS; also called GTP hydrolysis-deficient (Q111L) Rab34; source: E. coli, purified (His-trap FF, imidazole gradient)
GST-RILP (full ORF) [1]
  fold enhancement of binding to RILP in the presence of FLCN-DENN (1 uM) against without it: ~2.7 fold

B3: His-tagged human FLCN-DENN domain (amino acids 341-556) (domain or fragment, UniProt Q8NFG4 341-556, looked up)
chain: RKLPVFKSLRHMRQVLGAPSFRMLAWHVLMGNQVIWKSRDVDLVQSAFEVLRTMLPVGCVRIIPYSSQYEEAYRCNFLGLSPHVQIPPHVLSSEFAVIVEVHAAARSTLHPVGCEDDQSLSKYEFVVTSGSPVAADRVGPTILNKIEAALTNQNLSVDVVDQCLVCLKEEWMNKVKVLFKFTKVDSRPKEDTQKLLSILGASEEDNVKLLKFWMTG
notes: folliculin (FLCN), human, C-terminal DENN domain, amino acids 341-556, in pET28 His-thrombin; vector pET28 His-thrombin; detected by an anti-His antibody; also called His-FLCN-DENN; source: E. coli, purified (His-trap FF, imidazole gradient)
GST-RILP (full ORF) [2]
  binding result: binds

B4: endogenous Rab34 (natural protein, UniProt Q9BZG1 1-259, looked up)
chain: MNILAPVRRDRVLAELPQCLRKEAALHGHKDFHPRVTCACQEHRTGTVGFKISKVIVVGDLSVGKTCLINRFCKDTFDKNYKATIGVDFEMERFEVLGIPFSLQLWDTAGQERFKCIASTYYRGAQAIIIVFNLNDVASLEHTKQWLADALKENDPSSVLLFLVGSKKDLSTPAQYALMEKDALQVAQEMKAEYWAVSSLTGENVREFFFRVAALTFEANVLAELEKSGARRIGDVVRINSDDSNLYLTASKKKPTCCP
notes: Rab34 small GTPase, endogenous in human cell lines; source: endogenous, HeLa lysate; endogenous, lysates of UOK257, UOK257-2, UOK257-FLCN and UOK257-FLCNΔDENN cells
GST-RILP (full ORF) [3]
  fold increase of Rab34 retained on GST-RILP, starved against normal growth: ~2 fold
